The values that follow come from patent US20130189280A1.

In assay [1] the target is human hemoglobin (Sigma) (human) (UniProt P69905).
For assay [2], the target named is fibrinogen from human plasma (Sigma) (human) (UniProt P02671). Description: ELISA, fibrinogen titrated on immobilized K1; apparent Kd (FIG. 21). For orientation: In an ELISA, binding on a coated surface is turned into a signal by an enzyme label.
In assay [3] the target is complex of recombinant human serum albumin and hemin (rHSA-heme) (human) (UniProt P02768). The assay is described as follows: ELISA, rHSA-heme against rHSA on immobilized K3 (FIG. 22).
The target in assay [4] is fibrinogen from human plasma (Sigma) (human) (UniProt P02671). Description: ELISA, fibrinogen titrated on immobilized K3; apparent Kd (FIG. 21).

Turning to “K1 domain (Gly982-Gly1154) of lysine gingipain Kgp from Porphyromonas gingivalis W83, recombinant (from UniProt Q51817 982-1154)”, the Kd in assay [1] was 360 nM; in assay [2] it was 1500 nM.
Consider “K3 domain (Ala1427-Gly1602) of lysine gingipain Kgp from Porphyromonas gingivalis W83, recombinant, non-tagged (from UniProt Q51817 1427-1602)”, for which the Kd stood at 154 nM in assay [1] and 570 nM in assay [4]. In addition, the fold increase of binding affinity against rHSA without heme in assay [3] came to 9 fold.
